Experimental data from the supplement of paper PMC10598134.
± gives the standard deviation.

Test: collision cross section of modified peptide (TIMS, N2, iRT-aligned); higher = larger / more extended gas-phase ion
Procedure, shortened: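 Collision cross section was derived from the Mason-Schamp equation. Each value averages 1–3 technical replicates of the most abundant feature per charge state, measured on a timsTOF Pro/HT in dda-PASEF mode (nitrogen, ~2.4 mbar) after a 120-min nanoflow C18 gradient at 60 °C. Synthetic peptide pools (~100 fmol/µL in 2% acetonitrile/0.1% formic acid, iRT standard spiked 1:40) were identified with MaxQuant, and 1/K0 was calibrated with three reference ions and aligned run-wise to the median iRT peptide deviation.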

[1] = charge state: 2, modification: Crotonyl
[2] = charge state: 3, modification: Crotonyl
[3] = charge state: 2, modification: Propionyl
[4] = charge state: 2, modification: GlyGly (K)
[5] = charge state: 3, modification: GlyGly (K)
[6] = charge state: 2, modification: Glutarylation
[7] = charge state: 2, modification: Butyryl
[8] = charge state: 3, modification: Butyryl
[9] = charge state: 3, modification: Methyl (R)
[10] = charge state: 3, modification: Dimethyl (K)
[11] = charge state: 2, modification: Hydroxyproline
[12] = charge state: 3, modification: Hydroxyproline
[13] = charge state: 2, modification: Formyl
[14] = charge state: 2, modification: Acetyl (K)
[15] = charge state: 3, modification: Acetyl (K)

LVFDEYLK [_LVFDEY(Nitro (Y))LK_]
collision cross section (charge state: 2, modification: Nitro (Y)): 355.63 ± 0.17 Å²

DASTLQSQKAEGTGDAK [_DASTLQSQK(Crotonyl)AEGTGDAK_]
collision cross section [1]: 438.12 ± 0.54 Å² | collision cross section [2]: 513.07 ± 2.8 Å²

LEKTIDDLEEK [_LEK(Propionyl)TIDDLEEK_]
collision cross section [3]: 406.15 ± 0.38 Å²

LDHLAEKFR [_LDHLAEK(GlyGly (K))FR_]
collision cross section [4]: 374.05 ± 1.1 Å² | collision cross section [5]: 449.01 ± 1.6 Å²

AGPNASIISLKSDK [_AGPNASIISLK(Gluratylation)SDK_]
collision cross section [6]: 416.83 ± 0.49 Å²

SLFFGGKGAPLQR [_SLFFGGK(Butyryl)GAPLQR_]
collision cross section [7]: 406.8 ± 0.75 Å² | collision cross section [8]: 492.14 ± 2.1 Å²

DESFLGKLGGTLAR [_DESFLGK(GlyGly (K))LGGTLAR_]
collision cross section [4]: 437.68 ± 0.96 Å² | collision cross section [5]: 486.51 ± 1.1 Å²

SGATAGAAGGRGK [_SGATAGAAGGR(Methyl (R))GK_]
collision cross section (charge state: 2, modification: Methyl (R)): 366.66 ± 1.5 Å² | collision cross section [9]: 448.31 ± 3.9 Å²

YSSNLGNFNYEQRGAFR [_YSSNLGNFNYEQR(Methyl (R))GAFR_]
collision cross section [9]: 534.33 ± 1.9 Å²

LSTPPPLAEEEGLASR [_LS(HexNAc (ST))TPPPLAEEEGLASR_]
collision cross section (charge state: 2, modification: HexNAc (ST)): 448.88 Å² | collision cross section (charge state: 3, modification: HexNAc (ST)): 503.24 Å²

DVNAAIAAIKTK [_DVNAAIAAIK(Dimethyl (K))TK_]
collision cross section (charge state: 2, modification: Dimethyl (K)): 394.29 ± 0.87 Å² | collision cross section [10]: 456.19 ± 1.7 Å²

DSINFLDHINGKK [_DSINFLDHINGK(Butyryl)K_]
collision cross section [8]: 471.81 Å²

DFDTALKHYDK [_DFDTALK(Biotin)HYDK_]
collision cross section (charge state: 2, modification: Biotin): 424.89 ± 0.23 Å² | collision cross section (charge state: 3, modification: Biotin): 488.66 Å²

DYQPGITFIVVQK [_DYQP(Hydroxyproline)GITFIVVQK_]
collision cross section [11]: 402.94 ± 0.79 Å² | collision cross section [12]: 487.91 Å²

VSPASSVDSNIPSSQGYKK [_VSPASSVDSNIPSSQGYK(Formyl)K_]
collision cross section [13]: 457.96 ± 0.14 Å² | collision cross section (charge state: 3, modification: Formyl): 550.3 ± 3 Å²

GETASKLQSEISR [_GETASK(Formyl)LQSEISR_]
collision cross section [13]: 382.6 ± 1.7 Å²

LDHLAEKFR [_LDHLAEK(Crotonyl)FR_]
collision cross section [1]: 378.01 ± 0.89 Å² | collision cross section [2]: 440.09 ± 1.3 Å²

TQAYQDQKPGTSGLR [_TQAYQDQK(hydroxyisobutyryl)PGTSGLR_]
collision cross section (charge state: 2, modification: hydroxyisobutyryl): 431.22 ± 0.52 Å² | collision cross section (charge state: 3, modification: hydroxyisobutyryl): 484.99 ± 2.8 Å²

TTGFYSGFSEVAEKR [_TTGFYSGFSEVAEK(Butyryl)R_]
collision cross section [7]: 442.26 ± 0.29 Å²

ASDTSSETVFGKR [_ASDTSSETVFGK(Succinyl)R_]
collision cross section (charge state: 2, modification: Succinyl): 396.57 ± 0.25 Å² | collision cross section (charge state: 3, modification: Succinyl): 482.91 ± 3.3 Å²

LFVGGIKEDTEEHHLR [_LFVGGIK(Acetyl (K))EDTEEHHLR_]
collision cross section [14]: 494.34 Å² | collision cross section [15]: 543.04 ± 0.75 Å²

DSSPTTNSKLSALQR [_DSSPTTNSK(Gluratylation)LSALQR_]
collision cross section [6]: 431.44 ± 1.5 Å² | collision cross section (charge state: 3, modification: Glutarylation): 500.2 ± 1 Å²

IVFSGNLFQHQEDSKK [_IVFSGNLFQHQEDSK(Dimethyl (K))K_]
collision cross section [10]: 532.16 ± 0.77 Å²

FDDTNPEKEEAK [_FDDTNPEK(Crotonyl)EEAK_]
collision cross section [1]: 399.58 ± 0.79 Å² | collision cross section [2]: 439.29 Å²

DSINFLDHINGKK [_DSINFLDHINGK(GlyGly (K))K_]
collision cross section [5]: 464.41 ± 1.6 Å²

DTGEKLTVAENEAETK [_DTGEK(Propionyl)LTVAENEAETK_]
collision cross section [3]: 443.51 Å²

ISALQGKLSK [_ISALQGK(Crotonyl)LSK_]
collision cross section [1]: 358.67 ± 0.88 Å²

LEEVTGKLQVAR [_LEEVTGK(Acetyl (K))LQVAR_]
collision cross section [14]: 391.97 ± 0.61 Å² | collision cross section [15]: 467.89 Å²

GGSGGRGVSVSSAR [_GGSGGR(Citrullination (R))GVSVSSAR_]
collision cross section (charge state: 2, modification: Citrullination (R)): 361.74 ± 2.3 Å² | collision cross section (charge state: 3, modification: Citrullination (R)): 445.09 ± 2.9 Å²

IISSIEQKEENK [_IISSIEQK(Propionyl)EENK_]
collision cross section [3]: 403.07 ± 0.65 Å²

GKLGVPGLPGYPGR [_GKLGVP(Hydroxyproline)GLPGYPGR_]
collision cross section [11]: 384.86 ± 0.79 Å² | collision cross section [12]: 481 ± 2.9 Å²

ITESVAETAQTIKK [_ITESVAETAQTIK(Propionyl)K_]
collision cross section [3]: 421.06 ± 1.1 Å² | collision cross section (charge state: 3, modification: Propionyl): 515.07 Å²
